Measured values reported in doi:10.64898/2025.12.22.696049 (bioRxiv, 2025).

B1: S. cerevisiae fatty acid synthase subunit FAS2/α (enzyme, UniProt P19097 1-1887, looked up)
chain: MKPEVEQELAHILLTELLAYQFASPVRWIETQDVFLKDFNTERVVEIGPSPTLAGMAQRTLKNKYESYDAALSLHREILCYSKDAKEIYYTPDPSELAAKEEPAKEEAPAPTPAASAPAPAAAAPAPVAAAAPAAAAAEIADEPVKASLLLHVLVAHKLKKSLDSIPMSKTIKDLVGGKSTVQNEILGDLGKEFGTTPEKPEETPLEELAETFQDTFSGALGKQSSSLLSRLISSKMPGGFTITVARKYLQTRWGLPSGRQDGVLLVALSNEPAARLGSEADAKAFLDSMAQKYASIVGVDLSSAASASGAAGAGAAAGAAMIDAGALEEITKDHKVLARQQLQVLARYLKMDLDNGERKFLKEKDTVAELQAQLDYLNAELGEFFVNGVATSFSRKKARTFDSSWNWAKQSLLSLYFEIIHGVLKNVDREVVSEAINIMNRSNDALIKFMEYHISNTDETKGENYQLVKTLGEQLIENCKQVLDVDPVYKDVAKPTGPKTAIDKNGNITYSEEPREKVRKLSQYVQEMALGGPITKESQPTIEEDLTRVYKAISAQADKQDISSSTRVEFEKLYSDLMKFLESSKEIDPSQTTQLAGMDVEDALDKDSTKEVASLPNKSTISKTVSSTIPRETIPFLHLRKKTPAGDWKYDRQLSSLFLDGLEKAAFNGVTFKDKYVLITGAGKGSIGAEVLQGLLQGGAKVVVTTSRFSKQVTDYYQSIYAKYGAKGSTLIVVPFNQGSKQDVEALIEFIYDTEKNGGLGWDLDAIIPFAAIPEQGIELEHIDSKSEFAHRIMLTNILRMMGCVKKQKSARGIETRPAQVILPMSPNHGTFGGDGMYSESKLSLETLFNRWHSESWANQLTVCGAIIGWTRGTGLMSANNIIAEGIEKMGVRTFSQKEMAFNLLGLLTPEVVELCQKSPVMADLNGGLQFVPELKEFTAKLRKELVETSEVRKAVSIETALEHKVVNGNSADAAYAQVEIQPRANIQLDFPELKPYKQVKQIAPAELEGLLDLERVIVVTGFAEVGPWGSARTRWEMEAFGEFSLEGCVEMAWIMGFISYHNGNLKGRPYTGWVDSKTKEPVDDKDVKAKYETSILEHSGIRLIEPELFNGYNPEKKEMIQEVIVEEDLEPFEASKETAEQFKHQHGDKVDIFEIPETGEYSVKLLKGATLYIPKALRFDRLVAGQIPTGWNAKTYGISDDIISQVDPITLFVLVSVVEAFIASGITDPYEMYKYVHVSEVGNCSGSGMGGVSALRGMFKDRFKDEPVQNDILQESFINTMSAWVNMLLISSSGPIKTPVGACATSVESVDIGVETILSGKARICIVGGYDDFQEEGSFEFGNMKATSNTLEEFEHGRTPAEMSRPATTTRNGFMEAQGAGIQIIMQADLALKMGVPIYGIVAMAATATDKIGRSVPAPGKGILTTAREHHSSVKYASPNLNMKYRKRQLVTREAQIKDWVENELEALKLEAEEIPSEDQNEFLLERTREIHNEAESQLRAAQQQWGNDFYKRDPRIAPLRGALATYGLTIDDLGVASFHGTSTKANDKNESATINEMMKHLGRSEGNPVIGVFQKFLTGHPKGAAGAWMMNGALQILNSGIIPGNRNADNVDKILEQFEYVLYPSKTLKTDGVRAVSITSFGFGQKGGQAIVVHPDYLYGAITEDRYNEYVAKVSAREKSAYKFFHNGMIYNKLFVSKEHAPYTDELEEDVYLDPLARVSKDKKSGSLTFNSKNIQSKDSYINANTIETAKMIENMTKEKVSNGGVGVDVELITSINVENDTFIERNFTPQEIEYCSAQPSVQSSFAGTWSAKEAVFKSLGVKSLGGGAALKDIEIVRVNKNAPAVELHGNAKKAAEEAGVTDVKVSISHDDLQAVAVAVSTKK
B2: S. pombe fatty acid synthase subunit FAS2/α (enzyme, S. pombe (endogenous in K972 cells), UniProt Q10289 1-1842, looked up)
chain: MRPEVEQELAHTLLLELLAYQFASPVRWIETQDVILSPPVSAERIVEIGPSPTLAGMAKRTLKLKYENMDAALSINREVLCYSKDAREIYYNFEDEVADEPAEAPASTSSTPKVETAAAAAPAATPAPAPAQTSAPAAALPDEPPKALEVLHTLVAQKLKKSIEEVSPQKSIKDLVGGKSTLQNEILGDLQKEFGATPEKPEEVPLDELGAIMQSSFNGSLGKQSSSLISRMISSKMPGGFNNSAVRGYLGNRYGLGPGRLESVLLLALTMEPASRLGSEADAKAWLDSVAQKYAARNGVTLSSPTAEGGSSSGSAAVIDEETFKKLTKNNTMLVTQQLELFARYLNKDLRAGQKAQVAEKVISDTLRAQLDLWNEEHGEFYASGIAPIFSPLKARVYDSDWNWARQDALKMFFDIIFGRLKHVDTEIVARCISVMNRSNPTLLEFMQYHIDHCPAEKGETYQLAKTLGQQLIDNCKSVIDAPPVFKNVNHPTAPSTTIDERGNLNYEEIPRPGVRKLTHYVTEMAKGGKLPTESKNKAKVQNDLARIYRIIKSQNKMSRSSKLQIKQLYGQVLHALSLPLPSSNDEQTPVKETIPFLHIRKKSVDGNWEFNKSLTGTYLDVLESGAKNGITYQDKYALVTGAGAGSIGAQIVEGLLAGGAKVVVTTSRFSRKVTEFYQSLYTRHGSRGSCLIVVPFNQGSKTDVEALIDYIYDEKKGLGWNLDYIVPFAAIPENGREIDGIDSRSEFAHRIMLTNILRLLGAVKSQKASRGMDTRPAQVILPLSPNHGTFGNDGLYSESKLGLETLFNRWYSESWANYLTICGAVIGWTRGTGLMAPNNIVSQGIEKYGVRTFSQSEMAFNILGLMSQKVVDLCQSEPIYANLNGGLELLPDLKDLSTRLRTELLETAEIRRAVAAETAFDHSITNGPDSEAVFQKTAIQPRANLKFNFPKLKPYEALSHLSDLRGMVDLEKVPVVTGFSEVGPWGNSRTRWDMECYGEFSLEGCVEIAWIMGLIKNFNGKGKDGKPYSGWVDTKTGEPVDDKDVKAKYEKYILEHCGIRIIEAELFHGYNPEKKELLQEVVIDHDLEPFEASKEAAHEFKLRHGDQVEIFEIPDSTEWSVRFKRGTSMLIPKALRFDRFVAGQIPLGWDPKRYGIPDDIISQVDPTTLYVLVSTVEALVASGITDPYECYKYIHVSELGNTVGSGIGGMSALRGMYKDRWTDKPVQKDILQESFINTANAWINMLLLSASGPIKTPVGACATAVESVDAAVDLITSGKARICISGGYDDFSEEGSYEFANMGATSNAAKETERGRTPQEMSRPATSTRDGFMESQGAGVQIIMQAKLAIEMGVPIHGIVGYVSTAMDKQGRSVPAPGQGILTGAREIATKTPLPIVDLKFRSRQLQRRRSQIGEWAEREYLYLEEELDAMKVQNPDLDLEAYRIERINVIKEEVVRQEKEALNTFGNEFWKRDPTIAPIRGALAVWGLTIDDLGVASFHGTSTKANEKNECDVIDSQLTHLGRSKGNAVYGVFQKYLTGHSKGGAGAWMLNGALQILRSGFVPGNRNADNIDEYLARFDRVMFPSEGIQTDGIKAASVTAFGFGQVGGQVIVIHPDYIYGVIDEATYNAYKAKTAARYKASYRYTHDALVYNNLVRAKDSPPYTKEQEKAVYLNPLARASKSKAGTWTFPATLPAESDISKTNETTRTLQSLTTSLTNSNENVGVDVELVSAISIDNETFIERNFTDTERKYCFAAPNPQASFAGRWSAKEAVFKSLGISGKGAAAPLKDIEIISSESGAPEVVLHGEAAKAATTAGVKSVSVSISHDDNQSVSVALAHK

Assays:
Assay in all cases: cryo-EM structure
[1] = biological target: S. cerevisiae fatty acid synthase subunit FAS1/ß (S. cerevisiae (endogenous in W303 or BY4742 cells)) (UniProt P07149)
[2] = biological target: S. pombe fatty acid synthase subunit FAS1/ß (S. pombe (endogenous in K972 cells)) (UniProt Q9UUG0)
cryo-EM structure = biological target: the molecule itself

Molecule	stoichiometry N (cryo-EM structure)	also measured
S. cerevisiae fatty acid synthase subunit FAS1/ß, P07149 1-2051	–	stoichiometry N [1]: 3
S. pombe fatty acid synthase subunit FAS1/ß, Q9UUG0 1-2073	–	stoichiometry N [2]: 3
B1	6	–
B2	6	–
